Measured values taken from EP2210617A1.

B1: mature human Neurturin secreted from cells transfected with the dpro-NTN construct (deltapro102NTN) (ligand)
chain: ARLGARPCGLRELEVRVSELGLGYASDETVLFRYCAGACEAAARVYDLGLRRLRQRRRLRRERVRAQPCCRPTAYEDEVSFLDAHSRYHTVHELSARECACV
B2: mature human Neurturin secreted from cells transfected with the IgSP-NTN construct (IgSP-102NTN) (ligand)
chain: B1 chain

Key:
[1] = biological target: GFRα2/Fc fusion protein (R&D Systems) (human); experiment: GFRα2 ELISA (GFRα2/Fc on anti-Fc plate, Ret-AP detection) on conditioned medium of transfected CHO cells; reference is medium of wt NTN transfected cells
[2] = biological target: GFRα2/Fc fusion protein (R&D Systems) (human); experiment: GFRα2 ELISA (GFRα2/Fc on anti-Fc plate, Ret-AP detection) on conditioned medium of transfected HEK293 cells; reference is medium of wt NTN transfected cells
[3] = biological target: GFRα2/Fc fusion protein (R&D Systems) (human); experiment: GFRα2 ELISA (GFRα2/Fc on anti-Fc plate, Ret-AP detection) on conditioned medium of transfected ARPE-19 cells; reference is medium of wt NTN transfected cells
[4] = biological target: GFRα2/Fc fusion protein (R&D Systems) (human); experiment: GFRα2 ELISA (GFRα2/Fc on anti-Fc plate, Ret-AP detection) on conditioned medium of transfected HiB5 cells; reference is medium of wt NTN transfected cells

| Binder | fold higher NTN binding (relative GFRα2 binding activity, wt construct set to 1) [1] [fold] | fold higher NTN binding (relative GFRα2 binding activity, wt construct set to 1) [2] [fold] | fold higher NTN binding (relative GFRα2 binding activity, wt construct set to 1) [3] [fold] | fold higher NTN binding (relative GFRα2 binding activity, wt construct set to 1) [4] [fold] |
| --- | --- | --- | --- | --- |
| B1 | 4.1 | 90 | 117 | 7.5 |
| B2 | 66 | 278 | 771 | 162 |
